Three molecules from US20060002901A1, “Composition containing eosinophil cationic protein” (priority 2002, published 2006) can be followed below.

Data set [1] concerns BALB/c 3T3 cells. Nature of the data set: Proliferation of BALB/c 3T3 cells in low-serum medium, phase-contrast microscopy. Format: cell-based, mouse. Conditions: 0.5% FBS, 1 μM ECP, 60 pM bFGF, 48 hours, FIG. 4. Here is the method: In DMEM culture medium containing 10% FBS in a 24-well culture plate, BALB/c 3T3 cells were inoculated at a concentration of 2×10^4 cells/well, and cultured. […] After 24 hours, 1 μM ECP or RNaseA, and 60 pM bFGF were added to the culture solution in combination, respectively, then the culture was continued for an additional 48 hours.

The test system of the next data set is BALB/c 3T3 A31-K cells. Nature of the data set: Proliferation of BALB/c 3T3 cells, number of living cells after 48 hours. It is filed as cell-based, mouse. Conditions: 10% FBS, FIG. 2. The procedure: In DMEM culture medium containing 10% FBS in a 96-well culture plate, BALB/c 3T3 A31-K cells were inoculated at a concentration of 1000 cells/well, and after 24 hours, ECP or RNaseA was added to the culture solution to a final concentration of 1 μM, respectively. After the culture was continued for 48 hours, the number of living cells was counted.

In data set [2] the test system is myocardial cell derived from newborn rat. Nature of the data set: Number of heartbeats of myocardial cells. It is filed as cell-based. To be noted: ECP 10 ng, 100 ng or 1 μg per ml; 24 hours; FIG. 9. The procedure: Myocardial cells isolated from a newborn rat were dedifferentiated in the same manner as in Example 7 and ECP was added to the culture solution (10 ng, 100 ng or 1 μg per ml). Twenty-four hours after the addition, the number of heartbeats was counted.
Further, the effects of a ROCK inhibitor (Y27632) on the effects of ECP on increase in the number of heartbeats of myocardial cell were studied. The adding amounts of Y27632 were set at 0, 5, 10 and 15 μM, and the ECP concentration was set at 100 ng/ml.

Data set [3] relates to mouse fibroblast cell line (BALB/c 3T3). In words: Proliferation of cell lines derived from normal tissue, 10% FBS, MTT. It is filed as cell-based. Conditions: ECP 0 to 10 μM, 48 hours, FIG. 1. Here is the method:
(§1) The effects of ECP on the proliferation of a mouse fibroblast cell line (BALB/c 3T3), aortic smooth muscle cell line (A10), mouse mammary epithelial cell line (HC-11) and human umbilical vessel endothelial cell line (HUVEC) were analyzed in the presence of 10% FBS. First, in DMEM culture medium containing 10% FBS in a 96-well culture plate, each cell line was inoculated at a concentration of 500 cells/well. Then, the cells were cultured for 24 hours in an incubator in which CO2 was maintained at 5%. Then, the respective concentrations of ECP and RNaseA (0 to 10 μM) were added, and the culture was continued for 48 hours in the same incubator. Then, 3-(4,5-dimethylthiazol-2-yl)-diphenyl-tetrazolium bromide (MTT) was added, and the proliferation rate of each cell line was obtained.

Data set [4] deals with human umbilical vessel endothelial cell line (HUVEC). The description is as above. Conditions: ECP 0 to 10 μM, 48 hours, FIG. 1. Format: cell-based. Here is the method: as §1
In data set [5] the test system is mouse mammary epithelial cell line (HC-11). Described as above. It is filed as cell-based. Conditions: ECP 0 to 10 μM, 48 hours, FIG. 1. Here is the method: as §1
Data set [6] concerns aortic smooth muscle cell line (A10). The data set is described as above. It is filed as cell-based. To be noted: ECP 0 to 10 μM, 48 hours, FIG. 1. Here is the method: as §1
Another data set concerns MC3T3-E1 cells. In words: Alkali phosphatase (ALP) activity in osteoblast-like cells. It is filed as cell-based, rat. Conditions: ECP at 1 ng/ml vs BMP-4 100 ng/ml, 72 hours, FIG. 12. Here is the method: MC3T3-E1 cells were inoculated into α-MEM medium in a 24-well culture plate, and ECP (at a final concentration of 1 ng, 10 ng, 100 ng or 1 μg per ml), BMP-4 (100 ng/ml) or bFGF (100 ng/ml) was added. After 72 hours, the cells were washed with 10 mM Tris-HCl (pH 7.2) solution twice, and lysed in 10 mM Tris-HCl (pH 7.2) solution containing 0.1% Triton-X100. Then, the cell lysis solution was subjected to sonication treatment for 15 seconds to homoginize the cells. Then, 100 μl of the homogenized cell solution and 0.1 M aminomethyl propanol were mixed with 100 μl of a substrate solution (4 mg/ml p-nitorophenyl phosphate and 2 mM MgCl2) adjusted at pH 10.5, and they were reacted with each other at 37° C. for 30 minutes. The reaction was terminated with 0.5 M NaOH, and the absorbance at 410 nm was measured. The obtained value was divided by the total amount of proteins in the homogenized cell solution, whereby the specific activity was calculated.

For data set [7], the system named is BALB/c 3T3 cells. In words: Cytoskeletal molecule (stress fiber) formation in low-serum medium, confocal immunostaining. It is filed as cell-based, mouse. Conditions: 0.5% FBS, 1 μM ECP, 6 hours, FIG. 5. Here is the method:
A round cover glass with a diameter of 15 mm which had been sterilized in advance was placed in a 24-well culture plate, 1× phosphate buffer (PBS) containing 0.1% gelatin was added to each well so that the cover glass was sufficiently dipped in the solution. Then, the plate was left at room temperature for 30 minutes, whereby the cover glass was coated with gelatin. Then, each well was filled with DMEM culture medium containing 10% FBS, and BALB/c 3T3 cells were inoculated at a concentration of 2×10^4 cells/well and cultured. […] After an additional 24 hours, 1 μM ECP or RNaseA was added to the culture solution, respectively. After 6 hours, the cover glass on which BALB/c 3T3 cells were grown, was taken out from the well, washed 2 to 3 times with 1× PBS, then dipped in 4% formaldehyde (Wako Pure Chemical Industries, Ltd.) at room temperature for 10 minutes, whereby the cells were fixed. Then, the cover glass was washed 2 to 3 times with 1× PBS, dipped in 1× PBS containing 0.1% Trton-X100 for 10 minutes, whereby the cell membranes were lysed. Then, the cover glass was washed 2 to 3 times with 1× PBS, dipped in 0.5% BSA/PBS and left at room temperature for 30 minutes, whereby a nonspecific adsorption region was blocked with BSA in this operation. […]

In data set [8] the test system is BALB/c 3T3 cells. Nature of the data set: Time-course proliferation of BALB/c 3T3 cells, living cells counted every 24 hours. It is filed as cell-based, mouse. To be noted: 10% FBS, 4 days, medium changed on day 2, FIG. 3. The procedure: In DMEM culture medium containing 10% FBS in a 96-well culture plate, BALB/c 3T3 cells were inoculated at a concentration of 1000 cells/well. After the cells were cultured for 24 hours, 1 μM ECP or 1 μM RNaseA was added to the culture solution to a final concentration of […], respectively. The culture was continued for 4 days, and the number of living cells was counted for every 24 hours. Incidentally, the culture medium was changed on day 2 of the culture.

In data set [9] the test system is myocardial cell derived from newborn rat. Nature of the data set: Immunofluorescence staining of dedifferentiated myocardial cells. Format: cell-based. To be noted: ECP 100 ng/ml; 24 hours; FIG. 8. Here is the method: The cultured myocardial cells were cultured in SFM (2 μM BrDU, 100 units/ml penicillin, 100 μg/ml streptomycin) for 48 hours, whereby the cells were dedifferentiated. Then, the culture medium was changed, and ECP was added to a final concentration of 100 ng/ml. After an additional 24 hours, the cells were washed three times with 1× PBS for 10 minutes each, then dipped in 4% paraformaldehyde at room temperature for 30 minutes, whereby the cells were fixed. Then, the cells were dipped in PBS containing 0.25% Triton-X100 at room temperature for 15 minutes, and reacted in a blocking buffer containing BSA, to which anti-ENH1 antibody had been added at a ratio of 1:40, or anti-α-actinin antibody had been added at a ratio of 1:100, at 4° C. overnight. Then, a 20-minute washing with PBS containing 0.03% Triton-X100 was performed and the washing was repeated three times. To the blocking buffer, Cy3-labeled anti-mouse antibody and Cy2-labeled anti-rabbit IgG antibody were added (1:250 dilution in blocking buffer), respectively, and reaction was performed at 4° C. for 4 hours. After the reaction, a 20-minute washing with PBS containing 0.03% Triton-X100 was performed again and the washing was repeated three times. Then, water content was removed and 90% glycerol was added.

A further data set deals with PC12 cells. Nature of the data set: Survival of nerve like PC12 cells in serum-free medium, Cell Titer-Glo. Format: cell-based. Conditions: serum-free DMEM, 72 hours, ECP 10 and 1000 ng/ml, FIG. 11. The procedure: PC12 cells were cultured overnight in a 96-well culture plate at 1×10^4 cells/well/100 μl. As the culture medium, DMEM culture medium containing 10% FBS, penicillin, and streptomycin was used. Then, washing was performed once with 150 μl of DMEM, and the medium was changed to DMEM culture medium containing 100 μl of ECP, penicillin, and streptomycin. After cells were cultured for 72 hours, the number of living cells was counted using Cell Titer-GloTM Luminescent Cell Viability Assay (No. G7570; Promega).
(In general: ATP-based viability assays read luminescence as a measure of living cells.)

Take “bFGF: bFGF, added at 60 pM to low-serum culture”: in the data set on BALB/c 3T3 cells [1], the “cell proliferation in low-serum medium (phase-contrast observation)” value is “The cells were proliferated”.

B1: RNaseA: RNaseA, added as comparison protein alongside ECP (protein, UniProt P61823 27-150, looked up)
Ribonuclease pancreatic: KETAAAKFERQHMDSSTSAASSSNYCNQMMKSRNLTKDRCKPVNTFVHESLADVQAVCSQKNVACKNGQTNCYQSYSTMSITDCRETGSSKYPNCAYKTTQANKHIIVACEGNPYVPVHFDASV
Regarding B1, the “cell proliferation (number of living cells)” value with BALB/c 3T3 A31-K cells is given as “could not be observed”.

B2: eosinophil cationic protein (protein, UniProt P12724 28-160, looked up)
Eosinophil cationic protein: RPPQFTRAQWFAIQHISLNPPRCTIAMRAINNYRWRCKNQNTFLRTTFANVVNVCGNQSIRCPHNRTLNNCHRSRFRVPLLHCDLINPGAQNISNCTYADRPGRRFYVVACDNRDPRDSPRYPVVPVHLDTTI
B2: in data set [2], the “number of heartbeats of myocardial cell” value is listed as “increased in a dose-dependent manner”. The “cell proliferation (proliferation rate, MTT)” value in data set [3] is “the cell proliferation was promoted”; in [4], “the proliferation was not promoted or the proliferation was inhibited”; in data set [5], “the proliferation was not promoted or the proliferation was inhibited”; in data set [6] it was “the proliferation was not promoted or the proliferation was inhibited”. In addition, the “cell proliferation (number of living cells)” value in the data set with BALB/c 3T3 A31-K cells is listed as “significantly promoted the cell proliferation at any concentration”. In the data set on MC3T3-E1 cells, the “ALP activity (specific activity, control = 100%)” value was “equal to or higher than that of BMP-4”. Further, in the data set with BALB/c 3T3 cells [7], the “formation of cytoskeletal molecules (stress fibers)” value is given as “increase in the formation of many cytoskeletal molecules (stress fibers) was confirmed”. Further, the “time-course cell proliferation (number of living cells)” value in the data set with BALB/c 3T3 cells [8] is listed as “the proliferation of cells was significantly promoted”. The “effect on cardiac hypertrophy in myocardial cell (immunofluorescence staining)” value in data set [9] is recorded as “an effect of ECP on cardiac hypertrophy in a myocardial cell was confirmed”. Moreover, in the data set with PC12 cells, the “survival of nerve cells (number of living cells)” value is given as “the survival of nerve cells was maintained”.
